The supplement of paper PMC9170038

Test system: MS2 coat protein
Experiment: apparent KD of MS2 coat protein; higher = weaker reporter binding
Settings: Eterna round: R107; input ligand: theophylline 20 uM
Description: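 RNA-MaP round R107: designed RNA switches with theophylline, tryptophan, arginine or FMN aptamers are transcribed on-chip within common flanks. They are titrated with SNAP-549-labelled MS2 coat protein in RNA-MaP buffer (100 mM Tris pH 7.5, 80 mM KCl, 4 mM MgCl2), without ligand or with the indicated ligand. Median apparent KD per design.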

Sequence	apparent KD of MS2 coat protein [nM]
AACAUACAAUAAUAGGUGGAUAUAAGGCGGCGAGGACCGGUACGGCCGCCACUCGCGUACAUGAGGAUCACCCAUGUCUGAAACU [Same State - Tryptophan A (Freestyle 3)]	26.8
GAUAUGGAAACAUGUCAGAUCCUUACCGGUCGAGGACCGGUACGGCCGCCACUCGCAAAUAUUGUACAUGAGGAUCACCCAUGUA [Ex Tryptophan A 17]	15.4
UUCAGCUAGUCGGCCGCCACUACCUGAGGAUCACCCUGGUAAUCCUAACACUGCUUCGGCAGUGGUAGGACCGGGACUAGCUGAG	39.7
CUAUAAUGAAAACAUUAUAGAGUGGGUGAACGAGGACCGGUACGGCCGCCACUCGGACAUGAGGAUCACCCAUGUCCAUGUGAAA [AstrosExyTryA#24]	18.9
UCUGUUUGCUUUGUUUGUUUCUUCUUUGAGCGAGGACCGGUACGGCCGCCACUCGGGUUACAUGAGGAUCACCCAUGUGGUUUCU [Interesting]	163
UUAAUGGAGCUUUAAUUUACGAUUUCUGAUACCAGUGUUUCAUUUCACCCUUGGCAGCAGUGACAUGAGGAUCACCCAUGUAAUA [JR_Nu_SSTheophyA_Sub022]	35.5
GGGUGUGAUCCGGAUACCAGCGAACAUGAGGAUCACCCAUGUGACCUGAGAUCGGCUCUACGCCCUUGGCAGCCGCGGUCGCAGG [Same State Theophylline B GF13]	19.5
AUUGUCGUGUCGGCCGCCACUGUCAUGGUUUUCGUGGAAAACAUGAGGAUCACCCAUGUAAUUGACAGGACCGGGACAUGGCGGC [Ricegesoer]	11.1
GAUAGUUGAAGGGAUACCAGCCUGGACAUGAGGAUCACCCAUGUAGCGUGUUUGAAACUGGGCCCUUGGCAGCCCAUAUUGUGUA [Same State - Theophylline B / A]	17.6
ACAUGAGGAUCACCCAUGUCAUGAGGUUCACGAGGACCGGUACGGCCGCCACUCGACAUGAGGGUCACCCAUGUGAGGAACACCC [mamullun]	278
UAAUGUGAGAGAAGGAGCGGAAGUCUCGUUACAACAUGAGGAUCACCCAUGUAACGUACAGUCCAGGUAGGUCGCUCUCGGGCGC [pqacmullin]	21.4
GCGACACUCACGGCCGCCACUGAUUAGCCCAGUAUGGAGCCCACACAUGAGGAUCACCCAUGUCACAGGACCGGGUGGGUCUAUU [theeternabot_sameState_MS2_Trp_B_23]	42.1
CAAAAUUACGGAAGGAGCGCGGGUAGGCGGGUUGGAUCACAUGAGGAUCACCCAUGUAAAUCGCAGGUAGGUCGCCGUAAACGCG [Eslagele]	43.9
ACAUGAGGAUCACCCAUGUAUCAACGGGAAGGAGCGCCAAACAAGGCAGGUAGGUCGCCCACAUGAGGAUCACCCAUGUGUUGGU [Exclusion Arginine A GF 29]	25.8

Same assay, conditions: Eterna round: R107; input ligand: theophylline 2 mM

Sequence	apparent KD of MS2 coat protein [nM]
UAGUUGCUGACGGCCGCCACUAGAACAUGAGGAUCACCCAUGUAUUCUAGUGGACAUGGGUGGACUAGGACCGGGUCAGCAACAU [(Trp1)-(Ms2)-(T)'-(M)'-(Trp2)_Design9]	21
AAUAAUAAGGCGGCCGCCACUACACAUGAGGAUCACCCAUGUCUCGCGGGCUUGCGUUGGGAAAGUAGGACCGGGCCAAUAAUAA [Exclusion - Tryptophan B (Freestyle 9)]	27.3
GGUACAUGAGGAUCACCCAUGUAUGGGUACCGAGGACCGGUACGGCCGCCACUCGCAGGACAUGAGGAUCACCCAUGUGCAACCG [SSTA DOUBLE!!! :-D #11]	184
UUUUUCAUAGGUUAUAGUUUAGAAACUGAAGGAGCGUGGUAAUACACAGGUAGGUCGCAGAUUUUACAUGAGGAUCACCCAUGUU [JR_ExcArginiA_Sub014]	27
ACAUGAGGAUCACCCAUGUGAAGGCACGAUACCAGCUGAUCCCGUGGCCCUUGGCAGCGUCCGGUGUGGUCCGGCGGGUGGGACG [bbvmullin]	50.3
CGGCCCUCACCUGAGGAUCACCCAGGUGAUACCAGCCUGGAAACAGGCCCUUGGCAGCACCAGGUCAUCAAAGAUGACCAAGCCG [TheoAX 23 #SwitchBubble]	128
GACCGAUUAUAGCGCGAUUGUCUUGUGGAAGGAGCGCAGAGGGCUGCAGGUAGGUCGCCACAUGAGGAUCACCCAUGUCAGGAUA [Ananvediri]	35.8
AACAACAAGGGAAGGAGCGCGAAUAAUAAACAUGAGGAUCACCCAUGUAUCAUGGGCUUAACGCAGGUAGGUCGCCCACAAACAA [Exclusion Arginine B GF1]	49.4
GAUUACAUGAGGAUCACCCAUGUAACUGAAGGAGCGGUGAUAAAGCCAGGUAGGUCGCAGAACGACAUGUGGUUCAUCCAUGUAA [#16 Exclusion - Arginine A]	48
GAUAUAACAAAAGUUGUAUCAGUGGGUGAACGAGGACCGGUACGGCCGCCACUCGGACAUGAGGAUCACCCAUGUCCAUGUGAAA [AstrosExyTryA#18]	19.8
UGUAUGUGAUUUGAUACCAGACCAGCUGGUGUUAUAUGAGGAUCACCCAUAUAGGUUUGGGUCCCUUGGCAGCAAAUCGCAUACU [SS Theo B #24 Ms14]	17.4
UUGUUGUUUGGAAGGAGCGUGUAAGAUUAAGAACAUGAGGAUCACCCAUGUUUUAAGGGAACACAGGUAGGUCGCCGGGUGGUGG [11.R]	14.8
GCCUAGCAUCGAAGGAGCGGGCAUUACGCGCGAAAGCGCGAUACUUGAGGAACACCCAAGUCCCAGGUAGGUCGCGAUGCUAGGC [SSAB Alternative Aptamer #3 NP+V+V2]	94.9
UGUAUGUGAUUUGAUACCAGACCAGCUGGUGGUGCAUGAGGAACACCCAUGCAGGUUUGGGUCCCUUGGCAGCAAAUCGCAUACU [SS Theo B #24 Ms19]	33
AACAUACAAUAAUAGGUGGAUAUAAGGCGGCGAGGACCGGUACGGCCGCCACUCGCGUACAUGAGGAUCACCCAUGUCUGAAACU [Same State - Tryptophan A (Freestyle 3)]	27
GAUAUGGAAACAUGUCAGAUCCUUACCGGUCGAGGACCGGUACGGCCGCCACUCGCAAAUAUUGUACAUGAGGAUCACCCAUGUA [Ex Tryptophan A 17]	13.6
UUCAGCUAGUCGGCCGCCACUACCUGAGGAUCACCCUGGUAAUCCUAACACUGCUUCGGCAGUGGUAGGACCGGGACUAGCUGAG	32.6
CUAUAAUGAAAACAUUAUAGAGUGGGUGAACGAGGACCGGUACGGCCGCCACUCGGACAUGAGGAUCACCCAUGUCCAUGUGAAA [AstrosExyTryA#24]	17.7
